Assay results published in patent US20130203162A1 (EVROGEN IP JOINT STOCK, published 2013).
Residue numbers refer to the chain shown, from its start.

Key:
[1] = target: the molecule itself; test: gel filtration on Sephadex-100, self-association (~1 mg/ml dimer; about 10 mg/ml tendency to tetramers)
Procedure: (§1) Purified protein samples (˜1 mg/ml) were loaded onto a Sephadex-100 column (0.7×60 cm) and eluted with a solution of 50 mM phosphate buffer (pH 7.0) and 100 mM NaCl. EGFP, HcRed1 and DsRed2 (Clontech) were used as monomer, dimer and tetramer standards, respectively. In addition, a tendency to form tetramers has been indicated when recombinant purified EqFP578 was used for the gel-filtration at concentration of about 10 mg/ml.

[2] = target: the molecule itself; test: gel filtration as in Example 2, self-association
Procedure: as §1
Recombinant EqFP578 ml was prepared, purified and characterized as described in the Example 2 for wild type EqFP578. Fluorescence properties of this mutant were similar, but not identical to the wild type EqFP578. It has excitation-emission spectral peaks at 553 and 574 nm, respectively (FIG. 3). […] Like wild type EqFP578, EqFP578 m1 is a dimer.

[3] = target: the molecule itself; test: gel filtration, self-association
Procedure: as §1
Recombinant M1-NA was prepared, purified and characterized as described in the Example 2 for wild type EqFP578. According to gel-filtration data, M1-NA is a dimeric protein at a concentration of 1 mg/ml. Fluorescent properties of M1-NA are the same as those of EqFP578 ml. M1-NA is a bright red fluorescent protein, characterized with excitation/emission fluorescence spectra peaked at 553/574 nm. M1-NA fluorescence quantum yield=0.67, molar extinction coefficient (at 553 nm)=92,000 M(−1)cm(−1). M1-NA doesn't form aggregates in vitro, according to gel-electrophoresis data. It also doesn't form any noticeable aggregates upon expression in eukaryotic cells, as it was shown for HeLa and 293T cell lines.
It excitation/emission spectra peaked at 574/602 nm (see FIG. 4 for spectra). M1-602 nm fluorescence quantum yield=0.35, molar extinction coefficient (at 574 nm)=74,400 M″)cm⁽⁻¹⁾. According to gel-filtration data, M1-602 nm is a dimeric protein at concentration of 1 mg/ml.

[4] = target: the molecule itself; test: gel filtration (self-association)
Procedure: as §1
Recombinant nrM181-5 was prepared, purified and characterized as described in the Example 2 for wild type EqFP578. nrM181-5 is a cyan fluorescent protein, characterized with excitation/emission fluorescence spectra peaked at 400/470 nm (see FIG. 7 for spectra). According to gel-filtration data, nrM181-5 is a monomeric protein at a concentration of 1 mg/ml. The protein is capable of photoconversion to the red fluorescent form in response to violet light irradiation.

B1: wild type Entacmaea quadricolor red fluorescent protein EqFP578 (other)
chain: MSELIKENMHMKLYMEGTVNNHHFKCTSEGERKPYEGTQTMKIKVVEGGPLPFAFDILATSFMYGSKTFINHTQGIPDLFKQSFPEGFTWERITTYEDGGVLTATQDTSLQNGCIIYNVKINGVNFPSNGSVMQKKTLGWEANTEMLYPADGGLRGHSQMALKLVGGGYLHCSFKTTYRSKKPAKNLKMPGFHFVDHRLERIKEADKETYVEQHEMAVAKYCDLPSKLGHR
notes: Recombinant protein from E. coli, purified on TALON resin; Dimer by gel filtration at ~1 mg/ml, with a tendency to form tetramers at about 10 mg/ml; not shown: N-terminal six-histidine tag from the pQE30 vector
[1]
  binding result: binds

B2: EqFP578 m1 mutant (other)
chain: B1 chain with R32G, T68A, L79F, L110F, S131P, L138R
notes: Engineered mutant of EqFP578; also called EqFP578 ml
[2]
  binding result: binds

B3: M1-NA non-aggregating mutant of EqFP578 (other)
chain: MGEYSELITENMHMKLYMEGTVNNHHFKCTSEGEGKPYEGTQTMKIKVVEGGPLPFAFDILATSFMYGSKAFINHTQGIPDFFKQSFPEGFTWERITTYEDGGVLTATQDTSFQNGCIIYNVKINGVNFPSNGPVMQKKTRGWEANTEMLYPADGGLRGHSQMALKLVGGGYLHCSFKTTYRSKKPAKNLRMPGFHFVDHRLERIKEADKETYVEQHEMAVAKYCDLPSKLGHS
[3]
  binding result: binds

B4: M1-637 mutant of EqFP578 (other)
chain: B3 chain with Y4D, F113L, I118L, R141L, N146S, G155S, F177L, R191K, H200R
[3]
  binding result: binds

B5: M1-602 mutant of EqFP578 (other)
chain: B3 chain with Y4D, F113L, I118L, R141L, N146S, G155S, S161G, F177L, R191K
notes: Engineered red-shifted mutant; also called M1-602 nm
[3]
  binding result: binds

B6: nrM181-5 cyan mutant of EqFP578 (other)
chain: MSELIKENMHMKLYMEGTVNNHHFKCTSEGEGKPYEGTQTMKIKVVEGGPLPFAFDILATSFMYGSKTFINHTQGIPDFFKQSFPEGFTWERVTTYEDGGVLTATQDTSLQDGCLIYNVKIRGVNFPSNGPVMQKKTLGWEAHTEMLYPADGGLEGRSDMALKLVGGGHLIANFKTTYRSKKPAKNLKMPGVYYVDHRLERIKEADKETYVEQHEMAVAKYCDLPSKLGHKLN
notes: Derived from M1-mono1
[4]
  binding result: no binding (tested: 1 mg/ml)

B7: Cyan-2-1 cyan mutant of EqFP578 (other)
chain: B6 chain with E36G, K42R, F53V, K67R, H143F, A172C, H197Y, M216V, K220R
notes: Derived from M1-mono1
[4]
  binding result: no binding (tested: 1 mg/ml)
